Test results taken from US20110223216A1, “Nanoparticles and Porous Particles and Methods of Making the Same” (WAYNE STATE UNIVERSITY, priority 2008, published 2011).

Assay: Sedimentation rate / physical stability of micronized drug dispersions in HFA227 with or without chitosan-PLA nanoparticles
Description: Sedimentation rate of micronized insulin in HFA 227 were conducted to test the physical stability of dispersions.

[1] = pure (bare) drug particles in HFA227

Which creaming of dispersion [1] does the source give for insulin here?
Its creaming of dispersion is “creaming out in seconds”.

And the redispersibility [1]?
Its redispersibility is “not being redispersible”.

What about the “physical stability of dispersion” value (pure (bare) drug particles, 2 mg/ml in HFA227, 298K, saturation pressure) of the same substance?
The value was “poor stability”.

What about the “physical stability of dispersion” value (upon addition of chitosan-PLA nanoparticles (1 or 2 mg/ml), HFA227) of the same substance?
The value was “improved”.

What about the redispersibility (with chitosan-PLA nanoparticles, HFA227, after storage) of the same substance?
Its redispersibility is “can be redispersed simply by hand-shaking even after several days of storage”.
